Assay results reported in publication PMC4188734 (Journal of molecular biology, 2014).
Where two headings read alike, the source gives them in different places.

T1: OS-9 CTE (Homo sapiens, UniProt Q13438)
T1 chain: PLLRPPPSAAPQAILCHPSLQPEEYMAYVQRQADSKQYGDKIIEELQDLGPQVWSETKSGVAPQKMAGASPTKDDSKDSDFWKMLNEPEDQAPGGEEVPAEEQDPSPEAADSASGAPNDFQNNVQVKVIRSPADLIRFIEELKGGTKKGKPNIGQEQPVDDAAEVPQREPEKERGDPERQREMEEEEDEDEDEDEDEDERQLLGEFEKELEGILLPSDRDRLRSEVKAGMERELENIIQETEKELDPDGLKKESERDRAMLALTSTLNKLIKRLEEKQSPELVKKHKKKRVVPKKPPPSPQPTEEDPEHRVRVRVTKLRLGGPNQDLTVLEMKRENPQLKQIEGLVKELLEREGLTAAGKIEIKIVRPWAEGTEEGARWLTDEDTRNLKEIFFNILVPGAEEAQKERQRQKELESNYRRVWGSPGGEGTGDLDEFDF

T2: OS-9 ΔMRH (Homo sapiens, UniProt Q13438)
T2 chain: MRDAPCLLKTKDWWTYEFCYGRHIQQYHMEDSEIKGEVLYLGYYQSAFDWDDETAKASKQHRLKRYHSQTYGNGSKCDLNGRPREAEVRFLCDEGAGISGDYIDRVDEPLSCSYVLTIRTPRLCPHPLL

B1: Grp94 M domain (protein)
chain: NDIKPIWQRPSKEVEDDEYKAFYKSFSKESDDPMAYIHFTAEGEVTFKSILFVPTSAPRGLFDEYGSKKSDYIKLYVRRVFITDDFHDMMPKYLNFVKGVVDSDDLPLNVSRETLQQHKLLKVIRKKLVRKTLDMIKKIADEKYNDTFWKEFGTNIKLGVIEDHSNRTRLAKLLRFQSSHHPSDITSLDQYVERMKEKQDKIYFMAGSSRKEAESSPFVERLLKKGYEVIYLTEPVDEYCIQALPEFDGKRFQNVAKE
B2: OS-9 CTE (589–666) (domain or fragment, rat, UniProt Q5RKH6 589-666, looked up)
chain: KIEIKIVRPGAEGKEEDTRWLTDEDTRNLKEIFFNILVQGAEEANKERQRQSELESNYRRVWGSPGGEDTGDLDEFDF
B3: Grp94-C (601–754) (domain or fragment, canine, UniProt P41148 601-754, looked up)
chain: SEKTKESREAIEKEFEPLLNWMKDKALKDKIEKAVVSQRLTESPCALVASQYGWSGNMERIMKAQAYQTGKDISTNYYASQKKTFEINPRHPLIKDMLRRVKEDEDDKTVSDLAVVLFETATLRSGYLLPDTKAYGDRIERMLRLSLNIDPDAK
B4: OS-9 ΔMRH (267–666) (domain or fragment, rat, UniProt Q5RKH6 267-666, looked up)
chain: QHEEKVTEEVQDTDHQVWSGSKAAGAPPKKEDVSPTKEDKESEFWKMLQEPEEQATGTEEAQAGEQDLNHEAAADPAPAPPTDFQNNVQVKLIRSPADLIRLIEELKGAEKGKPSVRQEQPGDDTTEAPQREAEAKGKGGEPRGLVEEEDGDEEEEDEDEDEQQLLGEFEKELEGMLLPSDRERLRSEVKAGMERELENIIQETEKELDPEGLRKESEREQAILALTSTLDKLIKRLQESQSPELVQKYKKRRVVPQKPPPSPHPTEEEPEHRVRVRVTKLRHGGPNQDLTVLEMNRENPQLKQIEGLVTEVLEREGLTAEGKIEIKIVRPGAEGKEEDTRWLTDEDTRNLKEIFFNILVQGAEEANKERQRQSELESNYRRVWGSPGGEDTGDLDEFDF
B5: Grp94 C domain (protein)
chain: EGVKFDESEKTKESREAIEKEFEPLLNWMKDKALKDKIEKAVVSQRLTESPCALVASQYGWSGNMERIMKAQAYQTGKDISTNYYASQKKTFEINPRHPLIKDMLRRVKEDEDDKTVSDLAVVLFETATLRSGYLLPDTKAYGDRIERMLRLSLNIDPDAKVEEEPEEEPEE
B6: Grp94 MC domains (protein)
chain: NDIKPIWQRPSKEVEDDEYKAFYKSFSKESDDPMAYIHFTAEGEVTFKSILFVPTSAPRGLFDEYGSKKSDYIKLYVRRVFITDDFHDMMPKYLNFVKGVVDSDDLPLNVSRETLQQHKLLKVIRKKLVRKTLDMIKKIADEKYNDTFWKEFGTNIKLGVIEDHSNRTRLAKLLRFQSSHHPSDITSLDQYVERMKEKQDKIYFMAGSSRKEAESSPFVERLLKKGYEVIYLTEPVDEYCIQALPEFDGKRFQNVAKEGVKFDESEKTKESREAIEKEFEPLLNWMKDKALKDKIEKAVVSQRLTESPCALVASQYGWSGNMERIMKAQAYQTGKDISTNYYASQKKTFEINPRHPLIKDMLRRVKEDEDDKTVSDLAVVLFETATLRSGYLLPDTKAYGDRIERMLRLSLNIDPDAKVEEEPEEEPEE

What was measured:
Assay in all cases: ITC
OS-9 CTE = molecular target: T1, OS-9 CTE
OS-9 ΔMRH = molecular target: T2, OS-9 ΔMRH
OS-9 ΔMRH (267–666) = molecular target: B4
Grp94-M (337–594) = Grp94-M (337–594) (canine, UniProt P41148 337-594)
Grp94-C (601–754) = molecular target: B3
His-Grp94-MC (337–765) [1] = molecular target: T3, His-Grp94-MC (337–765) (canine, UniProt P41148 337-765)
His-Grp94-MC (337–765) [2] = molecular target: T3, His-Grp94-MC (337–765); remark: listed apart in the source

| Kd (OS-9 CTE) [µM] | Kd (OS-9 ΔMRH) [µM] | Kd (OS-9 ΔMRH (267–666)) [µM] | dH (OS-9 ΔMRH (267–666)) [kcal/mol] | stoichiometry N (OS-9 ΔMRH (267–666)) | Binder | further results |
| --- | --- | --- | --- | --- | --- | --- |
| 14 | 25 | 25.4 ± 2.6 | -3.3 ± 0.1 | 2.8 ratio of Grp94 monomer to the OS-9 hexamer | B1 | – |
| – | – | – | – | – | B2 | Kd (Grp94-M (337–594)): 14.3 ± 2.1 µM; dH (Grp94-M (337–594)): -9.1 ± 1 kcal/mol; stoichiometry N (Grp94-M (337–594)): 3.4 ratio of Grp94 monomer to the OS-9 hexamer; Kd (Grp94-C (601–754)): 15 ± 1.1 µM; dH (Grp94-C (601–754)): -33 ± 1.7 kcal/mol; stoichiometry N (Grp94-C (601–754)): 2.9 ratio of Grp94 dimer to the OS-9 hexamer; Kd (His-Grp94-MC (337–765) [1]): 22.4 ± 2 µM; dH (His-Grp94-MC (337–765) [1]): -11.6 ± 1 kcal/mol; stoichiometry N (His-Grp94-MC (337–765) [1]): 2.7 ratio of Grp94 dimer to the OS-9 hexamer |
| – | – | 24.6 ± 1.7 | -14 ± 0.7 | 1 ratio of Grp94 dimer to the OS-9 hexamer | B3 | – |
| – | – | – | – | – | B4 | Kd (His-Grp94-MC (337–765) [2]): 8.4 ± 2.3 µM |
| – | 24 | – | – | – | B5 | – |
| 22 | – | – | -7.2 ± 2.3 | 0.15 ratio of Grp94 dimer to the OS-9 hexamer | B6 | – |
